This assay addresses CD81 large external loop (LEL) (UniProt P60033).
UniProt P60033, sequence (P60033 113-201): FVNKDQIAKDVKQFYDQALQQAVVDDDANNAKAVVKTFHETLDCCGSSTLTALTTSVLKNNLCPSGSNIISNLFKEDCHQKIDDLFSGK

“HCV E2 ectodomain (E2e), isolate UKN2b_2.8, genotype 2b (domain or fragment)” gave an inhibition of infection of Huh-7.5 cells by HCVcc (infected foci, HCV core immunofluorescence), cells preincubated with 0.05 to 2 µM HCV E2e; 10% inhibition at 0.05 µM of 90%.

For the origin of these results see article PMC2824758.
